Source: paper PMC4721528

Substrate: CCCCC/C=C\C/C=C\C/C=C\C/C=C\CCCC(=O)O
Assay: mass spectrometric product formation assay
Type: biochemical, Mus musculus
Conditions: 50 nM enzyme

Protein | Km | kcat
mCOX-2 (mouse COX-2) (Mus musculus; L489M) (protein) ANPCCSNPCQNRGECMSTGFDQYKCDCTRTGFYGENCTTPEFLTRIKLLLKPTPNTVHYILTHFKGVWNIVNNIPFLRSLIMKYVLTSRSYLIDSPPTYNVHYGYKSWEAFSNLSYYTRALPPVADDCPTPMGVKGNKELPDSKEVLEKVLLRREFIPDPQGSNMMFAFFAQHFTHQFFKTDHKRGPGFTRGLGHGVDLNHIYGETLDRQHKLRLFKDGKLKYQVIGGEVYPPTVKDTQVEMIYPPHIPENLQFAVGQEVFGLVPGLMMYATIWLREHNRVCDILKQEHPEWGDEQLFQTSRLILIGETIKIVIEDYVQHLSGYHFKLKFDPELLFNQQFQYQNRIASEFNTLYHWHPLLPDTFNIEDQEYSFKQFLYNNSILLEHGLTQFVESFTRQIAGRVAGGRNVPIAVQAVAKASIDQSREMKYQSLNEYRKRFSLKPYTSFEELTGEKEMAAELKALYSDIDVMEMYPALLVEKPRPDAIFGETMVELGAPFSLKGLMGNPICSPQYWKPSTFGGEVGFKIINTASIQSLICNNVKGCPFTSFNVQDPQPTKTATINASASHSRLDDINPTVLIKRRSTEL | 1.4 ± 0.3 µM | 3.3 ± 0.1 s^–1
mCOX-2 (mouse COX-2) (Mus musculus) (protein) ANPCCSNPCQNRGECMSTGFDQYKCDCTRTGFYGENCTTPEFLTRIKLLLKPTPNTVHYILTHFKGVWNIVNNIPFLRSLIMKYVLTSRSYLIDSPPTYNVHYGYKSWEAFSNLSYYTRALPPVADDCPTPMGVKGNKELPDSKEVLEKVLLRREFIPDPQGSNMMFAFFAQHFTHQFFKTDHKRGPGFTRGLGHGVDLNHIYGETLDRQHKLRLFKDGKLKYQVIGGEVYPPTVKDTQVEMIYPPHIPENLQFAVGQEVFGLVPGLMMYATIWLREHNRVCDILKQEHPEWGDEQLFQTSRLILIGETIKIVIEDYVQHLSGYHFKLKFDPELLFNQQFQYQNRIASEFNTLYHWHPLLPDTFNIEDQEYSFKQFLYNNSILLEHGLTQFVESFTRQIAGRVAGGRNVPIAVQAVAKASIDQSREMKYQSLNEYRKRFSLKPYTSFEELTGEKEMAAELKALYSDIDVMELYPALLVEKPRPDAIFGETMVELGAPFSLKGLMGNPICSPQYWKPSTFGGEVGFKIINTASIQSLICNNVKGCPFTSFNVQDPQPTKTATINASASHSRLDDINPTVLIKRRSTEL | 2.3 ± 0.3 µM | 3.1 ± 0.1 s^–1
